Test results: patent US10918733B2, “Lipopeptide- and lipoprotein-conjugates and its use” (HELMHOLTZ-ZENTRUM FUER INFEKTIONSFORSCHUNG GMBH, priority 2009, dated 2021)

What was measured:
[1] = system: Ova-specific IgG1 antibodies; experiment: Serum Ova-specific antibody titers after immunization (ELISA); format: in vivo, C57BL6 mice; conditions: i.n.; by the end of the immunization protocol
Procedure: Experimental protocol 1: six-eight weeks-old female C57BL6 mice were purchased from Harlan Winkelmann GmbH (Borchen, Germany) and treated in accordance with local and European Community guidelines. Groups of 5 mice each were immunized on day 1, 14 and 28 with 30 μg of Ova (Sigma Chemie, Deisenhofen, Germany) or LPS-free Ova (EndoGrade Ovalbumin, Hyglos GmbH) alone, co-administered with 5 μg of BPPcysMPEG or with 5 to 10 μg of synthetic BPPcysOva^mPEG alone. For intranasal (i.n.) immunization, 10 μl were applied to each naris, whereas for the s.c. the compounds were resuspended in 50 μl of PBS per dose. Serum samples were collected at different time points (day 0, 13, 27 and 38) after immunization and stored at −20° C. prior to determination of Ova-specific antibodies. 96-well Nunc-Immuno MaxiSorp assay plates (Nunc, Roskilde, Denmark) were coated with 100 μl of Ova (Sigma Chemie, Deisenhofen, Germany) at 5 μg/ml in 0.05 M carbonate buffer (pH 8.2) per well. […] Endpoint titers were expressed as the reciprocal log2 of the last dilution, which gave an optical density at 405 nm of 0.1 units above the values of the negative controls after 15 to 30 min of incubation. […]
FIG. 5: Humoral responses stimulated following vaccination using BPPcysOva^mPEG. […] At day 38 post primary immunisation, serum samples were collected and the IgG 1 and IgG2c titres of Ova-specific antibodies were determined by ELISA. […]

[2] = system: Ova-specific secretory IgA; experiment: Local Ova-specific secretory IgA in lavages after i.n. immunization (ELISA); format: in vivo, C57BL6 mice; conditions: day 38
Procedure: Experimental protocol: at day 38, mice were sacrificed and the final sampling was performed. Vaginal and lung lavages were obtained by flushing the organs with 1 ml of PBS supplemented with 50 mM EDTA, 0.1% BSA, and 10 mM PMSF. Lavages were then centrifuged to remove debris (10 min at 3000×g), and supernatant fluids were stored at −20° C. To determine the concentration of total IgA present in the lung and vaginal lavages, serial dilutions of the corresponding samples were incubated in microtiter plates that were previously coated with goat anti-mouse IgA (Sigma Chemie), as capture antibodies (100 μl/well). Serial dilutions of purified mouse IgA (Sigma Chemie) were used to generate a standard curve.
To investigate the capacity of BPPcysOva^mPEG to stimulate local immune responses given by the i.n. route, we analyzed the production of Ova-specific secretory IgA in lung, nasal and vaginal lavages from immunized animals.
FIG. 5: Humoral responses stimulated following vaccination using BPPcysOva^mPEG. […] At day 38 post primary immunisation, serum samples were collected and the IgG 1 and IgG2c titres of Ova-specific antibodies were determined by ELISA. […] At day 38 post primary immunisation broncho alveolar lavage (BAL), nasal lavages (NL) and Vaginal lavages (VL) were collected and the Ova-specific secretory IgA (sIgA) expression in samples of immunized mice were determined by ELISA.

[3] = system: IFNgamma, IL-2, IL-4 and IL-17-secreting cells; experiment: ELISPOT of cytokine-secreting spleen cells in immunized mice; format: in vivo
Procedure: Experimental protocol: Spleens were removed and pooled for analysis of cellular immune responses. Cells were grown in RPMI 1640 supplemented with 10% fetal calf serum, 100 U/ml of penicillin, 50 μg/ml of streptomycin, 5×10^−5 M 2-mercaptoethanol and 1 mM L-glutamine (GIBCO BRL, Karlsruhe, Germany) and maintained at 37° C. in a humidified 5% CO2 atmosphere. Lymph node and spleen cell suspensions were adjusted to 5×10^6 cells/ml in complete medium, cells were seeded with 100 μl per well in a flat-bottomed 96-well microtiter plate (Nunc) and plates were incubated for 4 days in the presence of different concentrations of soluble Ova. Each concentration was tested in triplicates.
FIG. 7: Detection of IFNgamma, IL-2, IL-4 and IL-17-secreting cells in immunized mice. Spleen cells (1×10^6 and 5×10^5 cells/well) recovered from animals vaccinated by the (A) i.n. or (B) s.c. route were incubated in the presence of either the Ova protein (for IL2 and IL4) or a Ova peptide (TPHPARIGL) encompassing its immunodominant MHC class I-restricted epitope (for IFNgamma). Then, the numbers of IFNgamma, IL2, IL4 and IL-17-producing cells was determined by ELISPOT. Results are presented as spot forming units per 10^6 cells, which were subtracted from the values obtained from non-stimulated cells. The SEM of triplicates is indicated by vertical lines.

B1: Ova: model antigen ovalbumin (Sigma Chemie) (protein, UniProt P01012 2-386, looked up)
Ovalbumin: GSIGAASMEFCFDVFKELKVHHANENIFYCPIAIMSALAMVYLGAKDSTRTQINKVVRFDKLPGFGDSIEAQCGTSVNVHSSLRDILNQITKPNDVYSFSLASRLYAEERYPILPEYLQCVKELYRGGLEPINFQTAADQARELINSWVESQTNGIIRNVLQPSSVDSQTAMVLVNAIVFKGLWEKAFKDEDTQAMPFRVTEQESKPVQMMYQIGLFRVASMASEKMKILELPFASGTMSMLVLLPDEVSGLEQLESIINFEKLTEWTSSNVMEERKIKVYLPRMKMEEKYNLTSVLMAMGITDVFSSSANLSGISSAESLKISQAVHAAHAEINEAGREVVGSAEAGVDAASVSEEFRADHPFLFCIKHIATNAVLFFGRCVSP
**Q.** With B1 as the molecule, how does the “Ova-specific IgG1 endpoint titer in serum” value [1] read?
**A.** The value was ≤ 10^6.

**Q.** And the “Ova-specific IgA in lung lavages” value [2]?
**A.** Its value is “failed to stimulate the production of detectable levels”.

**Q.** What about the “IFNγ producing cells after i.n. administration” value [3] of the same molecule?
**A.** The value was “narrowly detectable”.
